Experimental data published in patent US20240301031A1 (JIANGSU HENGRUI PHARMACEUTICALS, published 2024).

Tests used:
[1] = target: T1, human APRIL (5860-AP-010/CF, R&D Systems) (human, UniProt O75888 115-250, limits assumed); experiment: competition ELISA: biotin-labeled APRIL to coated BCMA
T1 construct: Bought protein
T1 sequence (looked up): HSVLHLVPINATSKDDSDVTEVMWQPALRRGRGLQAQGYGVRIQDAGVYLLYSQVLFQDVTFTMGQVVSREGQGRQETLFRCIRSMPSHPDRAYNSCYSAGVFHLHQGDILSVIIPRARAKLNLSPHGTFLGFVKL
Method: (§1) A receptor protein was diluted to 2 μg/mL with PBS at pH 7.4 (BasalMedia, B320) and added to a 96-well microplate (Corning, 3590) at 100 μL/well. The plate was incubated at 4° C. overnight. After the liquid was discarded, 200 μL of 1% Casein blocking solution (Thermo, 37528) was added to each well for blocking, and the plate was incubated at 37° C. for 2 h. After the blocking was completed, the blocking solution was discarded, and the plate was washed 3 times with a PBST buffer (PBS at pH 7.4 containing 0.1% tween-20) for later use. A biotin-labeled ligand protein at a fixed concentration was mixed with the antibody or fusion protein diluted in gradient, pre-incubated at 37° C. for 30 min, and added to a blocked microplate. The plate was incubated at 37° C. for 1.5 h. After the incubation was completed, the plate was washed 3 times with PBST. 100 μL of streptavidin-HRP (Invitrogen, 434323, diluted at a ratio of 1:4000) was added to each well, and the plate was incubated at 37° C. for 1 h. The supernatant was removed, and the plate was washed 3 times with PBST. […] The plate was read for absorbance values at 450 nm on a microplate reader, the curves for the inhibition of the binding of the ligands to the receptors were fitted with software, and the IC₅₀ values were calculated. […]

[2] = target: T2, human BAFF (10056-HNCH, Sino biological) (human, UniProt Q9Y275 134-285); experiment: competition ELISA: BAFF-R coated on the plate, biotin-labelled BAFF at a fixed concentration pre-incubated with the diluted sample, streptavidin-HRP, OD450 (blocked ligand-receptor pair: BAFF/BAFF-R)
T2 construct: Bought protein
Method: as §1

[3] = target: T2, human BAFF (10056-HNCH, Sino biological); experiment: ELISA, BAFF coated, sample titrated
Method: The binding activity of the antibodies or fusion proteins for BAFF, APRIL, and IL-12/23 p40 was assayed by the ELISA method (coating an antigen protein). The specific procedures were as follows:
A BAFF (Sino biological, 10056-HNCH), APRIL (R&D Systems, 5860-AP-010/CF), or IL-12/23 p40 (Sino biological, 10052-H08H) protein was diluted to 1 μg/mL with a PBS (BasalMedia, B320) buffer at pH 7.4, and added to a 96-well microplate (Corning, 3590) at 100 μL/well. The plate was incubated at 4° C. overnight. After the liquid was discarded, 300 μL of 5% skim milk (BD, 232100) diluted with PBS was added to each well for blocking, and the plate was incubated at 37° C. for 2 h. After the blocking was completed, the blocking solution was discarded, and the plate was washed 3 times with a PBST buffer (PBS at pH 7.4 containing 0.1% tween-20). 100 μL of test antibody or fusion protein solution diluted in a gradient was added to each well, and the plate was incubated at 37° C. for 1 h. After the incubation was completed, the plate was washed 3 times with PBST. […] The plate was washed 3 times with PBST. […] The plate was read for absorbance values at 450 nm on a microplate reader, the binding curves of the antibodies to an antigen were fitted with software, and the EC₅₀ values were calculated.

[4] = target: T3, cynomolgus monkey APRIL (APR-CM410B, Kactus) (cynomolgus monkey); experiment: SPR (Biacore), sample captured on Protein A, antigen flowed, 1:1 fit
T3 chain: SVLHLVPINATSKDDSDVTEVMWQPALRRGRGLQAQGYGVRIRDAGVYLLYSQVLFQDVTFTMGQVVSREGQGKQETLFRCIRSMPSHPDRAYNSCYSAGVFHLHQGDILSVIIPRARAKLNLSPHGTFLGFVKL

[5] = target: T2, human BAFF (10056-HNCH, Sino biological); experiment: competition ELISA: biotin-labeled BAFF to coated BAFF-R
Method: The blocking activity of the antibodies and the fusion proteins for receptors and ligands such as BAFF/BAFF-R, BAFF/BCMA, BAFF/TACI, APRIL/BCMA, APRIL/TACI, and p40/IL-12R1 was assayed by the ELISA method. The specific procedures were as follows:
A receptor protein was diluted to 2 μg/mL with PBS at pH 7.4 (BasalMedia, B320) and added to a 96-well microplate (Corning, 3590) at 100 μL/well. The plate was incubated at 4° C. overnight. After the liquid was discarded, 200 μL of 1% Casein blocking solution (Thermo, 37528) was added to each well for blocking, and the plate was incubated at 37° C. for 2 h. After the blocking was completed, the blocking solution was discarded, and the plate was washed 3 times with a PBST buffer (PBS at pH 7.4 containing 0.1% tween-20) for later use. A biotin-labeled ligand protein at a fixed concentration was mixed with the antibody or fusion protein diluted in gradient, pre-incubated at 37° C. for 30 min, and added to a blocked microplate. The plate was incubated at 37° C. for 1.5 h. After the incubation was completed, the plate was washed 3 times with PBST. 100 μL of streptavidin-HRP (Invitrogen, 434323, diluted at a ratio of 1:4000) was added to each well, and the plate was incubated at 37° C. for 1 h. The supernatant was removed, and the plate was washed 3 times with PBST. 100 μL of TMB chromogenic substrate (KPL, 5120-0077) was added to each well, and the plate was incubated at room temperature for 10-15 min. The reaction was stopped by adding 50 μL of 1 M H₂SO₄ to each well. The plate was read for absorbance values at 450 nm on a microplate reader, the curves for the inhibition of the binding of the ligands to the receptors were fitted with software, and the IC₅₀ values were calculated.

IC50 [1]: 25.1 nM | IC50 (read off the curve) [2]: ~3 nM | EC50 [3]: 6.71 nM | Kd [4]: 0.0436 nM | koff [4]: 0.000507 s⁻¹ | kon [4]: 1.16e+07 M⁻¹ s⁻¹ | IC50 [5]: 19.2 nM
B1: RCT-18 (Telitacicept) (Fc fusion)
chain: SRVDQEERFPQGLWTGVAMRSCPEEQYWDPLLGTCMSCKTICNHQSQRTCAAFCRSLSCRKEQGKFYDHLLRDCISCASICGQHPKQCAYFCENKLRSPVNLPPELDKTHTCPPCPAPEAEGAPSVFLFPPKPKDTLMISRTPEVTCVVVDVSHEDPEVKFNWYVDGVEVHNAKTKPREEQYNSTYRVVSVLTVLHQDWLNGKEYKCKVSNKALPSSIEKTISKAKGQPREPQVYTLPPSRDELTKNQVSLTCLVKGFYPSDIAVEWESNGQPENNYKTTPPVLDSDGSFFLYSKLTVDKSRWQQGNVFSCSVMHEALHNHYTQKSLSLSPGK
notes: Positive control; TACI part is positions 13-118 of the extracellular region of human TACI, the rest is Fc
